# Publication PMC4045628 (CellBio, 2014)
# B1: PAR-6B (natural protein, rat (endogenous in PC12), UniProt D4A2F2 1-372, looked up)
# chain: MNRGHRHGVSSGCLGTMEVKSKFGAEFRRFSLERSKPGKFEEFYGLLQHVHKIPNVDVLVGYADIHGDLLPINNDDNYHKAVSTANPLLRVFIQKKEEADYSAFGTDTLIRKKNVLSNVLRPDNHRKKPHIVISMPQDFRPVSSIIDVDILPETHRRVRLYKYGTEKPLGFYIRDGSSVRVTPHGLEKVPGIFISRLVPGGLAQSTGLLAVNDEVLEVNGIEVSGKSLDQVTDMMIANSRNLIITVRPANQRNNVVRNSRTSGSSGQSTDNSLLGYPQQAGASLEPEDQDSDEDDIIIEGSGEPQQIPKATPEALSLESLTQIELSFESGQNGFSPLQDTSLVAVPSSLDTESESRAPDQKLLEEDGTIITL
# Assays:
# [1] = biological target: T1, HA-tagged wild-type PKC iota (UniProt P41743 1-596); test: co-IP
# T1 sequence (looked up): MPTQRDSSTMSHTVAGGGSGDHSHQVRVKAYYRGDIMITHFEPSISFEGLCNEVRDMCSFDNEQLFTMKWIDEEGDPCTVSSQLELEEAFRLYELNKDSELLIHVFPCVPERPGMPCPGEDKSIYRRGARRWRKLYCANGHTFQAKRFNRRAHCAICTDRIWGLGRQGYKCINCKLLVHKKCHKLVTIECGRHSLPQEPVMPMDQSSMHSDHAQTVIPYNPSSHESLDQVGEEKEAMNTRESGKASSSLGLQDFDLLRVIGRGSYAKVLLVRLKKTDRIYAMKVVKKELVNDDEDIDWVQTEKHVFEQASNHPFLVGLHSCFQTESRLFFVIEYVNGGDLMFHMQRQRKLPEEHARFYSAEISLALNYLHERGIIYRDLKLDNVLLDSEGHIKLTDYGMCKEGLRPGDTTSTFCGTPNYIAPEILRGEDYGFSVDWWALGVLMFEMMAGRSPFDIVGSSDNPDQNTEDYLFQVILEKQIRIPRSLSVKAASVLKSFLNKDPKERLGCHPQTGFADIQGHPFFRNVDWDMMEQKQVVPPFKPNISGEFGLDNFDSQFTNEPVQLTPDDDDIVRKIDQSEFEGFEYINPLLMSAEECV
# [2] = biological target: HA-tagged kinase-inactive PKC iota (UniProt P41743); test: co-IP
binder,measurement,setting,value
B1,fold co-immunoprecipitated relative to PAR-3,[1],~10 fold
same,fold co-immunoprecipitated relative to PAR-3,[2],10 fold
